Results from patent US20250074942A1, “COMPOSITIONS AND METHODS FOR COVALENT PEPTIDE-BASED MODULATORS OF HLA-E” (Calico Life Sciences LLC, priority 2022, published 2025).
Where no end group is shown, it is not given here. The star is where a group is joined. FITC = O=C1OC2(c3ccc(O)cc3Oc3cc(O)ccc32)c2ccc(NC(=S)*)cc21; mSF = 3-benzenesulfonyl fluoride, O=S(=O)(F)c1cccc(*)c1

Molecular target: T1, CD94/NKG2A binding to HLA-E (Homo sapiens, UniProt P13747)
T1 construct: [HLAE(hu)(22-305)]-Avitag]; made in house
Assay: Biolayer interferometry (BLI): inhibition of CD94/NKG2A binding to peptide-loaded HLA-E
Settings: BLI after a 2 h incubation of [HLA-E+VL9] with the electrophilic peptide
Description: Proteins were produced as described in EXAMPLE 2 and peptides were synthesized as described in EXAMPLE 3.
BLI was performed on a ForteBio Octet Red96e instrument. All proteins were diluted in 1× Kinetic Buffer (10× Kinetic buffer, Sartorius 181105) diluted in 1×PBS. A Blocking Buffer step was introduced to lower non-specific binding to the streptavidin (SA) tips by diluting 5% bovine serum albumin (BSA) and 20 μg/mL Biocytin (Sigma B4261) in 1× Kinetic Buffer. Refolded and biotinylated [HLA-E+VL9] complexes were loaded onto SA biosensors (Forte 18-5019) at ˜5 μg/ml (100 nM) with the following steps: 60 sec baseline in 1× Kinetic Buffer, 180 sec loading, 60 sec blocking in Blocking Buffer and 60 sec baseline in 1× Kinetic Buffer, all at 25° C. and 1000 rpm. hSCD and oaFC-hSCD binding to immobilized HLA-E/B2M complexes was monitored at 200 nM by a 90 sec association step, followed by a 120 sec dissociation step. Data correction was performed as follows: first, aligning the data to the average of the last baseline step on the y-axis; second, by aligning the data to the dissociation step for inter-step correction; and third by filtering the data using Savitzky-Golay Filtering.
This example describes the analysis of inhibition of CD94-NKG2A binding to HLA-E by exemplary modified peptides by bio-layer interferometry (BLI).
Briefly, proteins and VL9 or Qdm derived peptides were produced as described in EXAMPLE 2 and EXAMPLE 3. BLI measurements to determine inhibition were performed as described in EXAMPLE 4.

T1 sequence (P13747 22-305): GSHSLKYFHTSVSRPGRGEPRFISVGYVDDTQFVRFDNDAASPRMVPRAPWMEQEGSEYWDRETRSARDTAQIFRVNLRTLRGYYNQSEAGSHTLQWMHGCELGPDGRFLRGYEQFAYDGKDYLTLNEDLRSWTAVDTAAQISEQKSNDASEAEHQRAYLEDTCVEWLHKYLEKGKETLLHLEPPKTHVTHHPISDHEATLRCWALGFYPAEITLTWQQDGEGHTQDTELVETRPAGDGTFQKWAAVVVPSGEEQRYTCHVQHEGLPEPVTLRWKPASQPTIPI
T1 sequence (P61769 21-119 partner): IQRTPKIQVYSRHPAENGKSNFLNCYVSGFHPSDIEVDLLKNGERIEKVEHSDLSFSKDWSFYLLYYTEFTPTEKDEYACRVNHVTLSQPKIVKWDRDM

Substance | able to reduce the binding of CD94-NKG2A to HLA-E (in words)
NH2-Val-Met-Ala-Pro-Arg-Thr-Leu-Cys(mSF)-Leu-OH (H-VMAPRTLC(mSF)L-OH; SMILES CSCC[C@H](NC(=O)[C@@H](N)C(C)C)C(=O)N[C@@H](C)C(=O)N1CCC[C@H]1C(=O)N[C@@H](CCCNC(=N)N)C(=O)N[C@H](C(=O)N[C@@H](CC(C)C)C(=O)N[C@@H](CSc1cccc(S(=O)(=O)F)c1)C(=O)N[C@@H](CC(C)C)C(=O)O)[C@@H](C)O) [VL9—8Cys(mSF)] | not

Same assay, conditions: BLI, CD94-NKG2A 200 nM

Substance | inhibition of CD94/NKG2A binding (in words)
NH2-Cha-hAr-Ala-Leu-hAr-Gln-Met-Mff-hAr-OH [Peptide B5.scrambled] | no inhibition of binding

Same assay, conditions: Table 13; inhibition of CD94-NKG2A binding to HLA-E; BLOD = below the limit of detection

Substance | BLI result
hAr-Nle-hAr-Gln-Lys(DOTA)-Ala-Cha-hAr-Leu [B9_5Lys(DOTA)] | inhibition
Lys(TAMRA)-Nle-hAr-Gln-Mff-Ala-Cha-hAr-Leu [B9_1Lys(TAMRA)] | inhibition
hAr-Nle-hAr-Gln-Mff-Ala-Cha-hAr-Leu-Leu-Pro-Glu-Thr-Gly-Gly [Peptide B9_LPETGG] | inhibition
NH2-Val-Met-Ala-Pro-Arg-Thr-Leu-Cys(mSF)-Leu-OH (H-VMAPRTLC(mSF)L-OH; SMILES CSCC[C@H](NC(=O)[C@@H](N)C(C)C)C(=O)N[C@@H](C)C(=O)N1CCC[C@H]1C(=O)N[C@@H](CCCNC(=N)N)C(=O)N[C@H](C(=O)N[C@@H](CC(C)C)C(=O)N[C@@H](CSc1cccc(S(=O)(=O)F)c1)C(=O)N[C@@H](CC(C)C)C(=O)O)[C@@H](C)O) [VL9—8Cys(mSF)] | inhibition
hAr-Nle-hAr-Gln-Lys(FITC)-Ala-Cha-hAr-Leu [B9_5Lys(FITC)] | inhibition
hAr-Nle-hAr-Gln-Mff-Ala-Cha-Lys(ibu)-Leu [B9_8Lys(ibu)] | inhibition
hAr-Nle-hAr-Gln-Mff-Ala-Cha-Lys(TAMRA)-Leu [B9_8Lys(TAMRA)] | inhibition
hAr-Nle-hAr-Gln-Lys(TAMRA)-Ala-Cha-hAr-Leu [B9_5Lys(TAMRA)] | inhibition
hAr-Nle-hAr-Gln-Lys(ibu)-Ala-Cha-hAr-Leu [B9_5Lys(ibu)] | inhibition
hAr-Nle-hAr-Gln-Lys(CUM)-Ala-Cha-hAr-Leu [B9_5Lys(CUM)] | inhibition

Same assay, conditions: Table 15, peptides with additional amino acids at the N-terminus; BLOD = below the limit of detection

Substance | BLI result
Gly-hAr-Nle-hAr-Gln-Mff-Ala-Cha-hAr-Leu [Peptide G1_B9] | inhibition

Molecular target: T2, HLA-E (Homo sapiens, UniProt P13747)
T2 construct: [HLAE(hu)(22-305)]-Avitag]; made in house
Assay: Cross-linking of electrophilic peptides with [HLA-E+VL9], covalently bound HLA-E by LC-MS
Format: binding
Settings: peptide in 10-fold excess with [HLA-E+VL9], 4 h at 37° C.
Description: The Cys peptide variants were equipped with a mSF warhead in a Pd-mediated coupling using Pd oxidative addition complex 1 (FIGS. 6A and 6B) X* indicating position functionalized with the electrophilic warhead). Electrophilic analogs of VL9 were subjected to cross-linking reactions in a 10-fold excess with [HLA-E+VL9] for 4 h at 37° C., and the amount of covalently bound HLA-E was determined by LC-MS as described in EXAMPLE 4.
Briefly, crosslinking reactions were performed as described in EXAMPLE 5.

T2 sequence (P13747 22-305): as the sequence (P13747 22-305) above
T2 sequence (P61769 21-119 partner): as the sequence (P61769 21-119 partner) above

Substance | amount of covalently bound (cross-linked) HLA-E [%] | cross-linking with HLA-E (in words)
NH2-Val-Met-Cys(mSF)-Pro-Arg-Thr-Leu-Phe-Leu-OH (H-VMC(mSF)PRTLFL-OH; SMILES CSCC[C@H](NC(=O)[C@@H](N)C(C)C)C(=O)N[C@@H](CSc1cccc(S(=O)(=O)F)c1)C(=O)N1CCC[C@H]1C(=O)N[C@@H](CCCNC(=N)N)C(=O)N[C@H](C(=O)N[C@@H](CC(C)C)C(=O)N[C@@H](Cc1ccccc1)C(=O)N[C@@H](CC(C)C)C(=O)O)[C@@H](C)O) [VL9—3Cys(mSF)] | 73 | –
NH2-Val-Cys(mSF)-Ala-Pro-Arg-Thr-Leu-Phe-Leu-OH (H-VC(mSF)APRTLFL-OH; SMILES CC(C)C[C@H](NC(=O)[C@H](Cc1ccccc1)NC(=O)[C@H](CC(C)C)NC(=O)[C@@H](NC(=O)[C@H](CCCNC(=N)N)NC(=O)[C@@H]1CCCN1C(=O)[C@H](C)NC(=O)[C@H](CSc1cccc(S(=O)(=O)F)c1)NC(=O)[C@@H](N)C(C)C)[C@@H](C)O)C(=O)O) [VL9—2Cys(mSF)] | – | no or only trace amounts of cross-linking
NH2-Cys(mSF)-Met-Ala-Pro-Arg-Thr-Leu-Phe-Leu-OH (H-C(mSF)MAPRTLFL-OH; SMILES CSCC[C@H](NC(=O)[C@@H](N)CSc1cccc(S(=O)(=O)F)c1)C(=O)N[C@@H](C)C(=O)N1CCC[C@H]1C(=O)N[C@@H](CCCNC(=N)N)C(=O)N[C@H](C(=O)N[C@@H](CC(C)C)C(=O)N[C@@H](Cc1ccccc1)C(=O)N[C@@H](CC(C)C)C(=O)O)[C@@H](C)O) [VL9—1Cys(mSF)] | – | no or only trace amounts of cross-linking
NH2-Val-Met-Ala-Pro-Arg-Thr-Leu-Cys(mSF)-Leu-OH (H-VMAPRTLC(mSF)L-OH; SMILES CSCC[C@H](NC(=O)[C@@H](N)C(C)C)C(=O)N[C@@H](C)C(=O)N1CCC[C@H]1C(=O)N[C@@H](CCCNC(=N)N)C(=O)N[C@H](C(=O)N[C@@H](CC(C)C)C(=O)N[C@@H](CSc1cccc(S(=O)(=O)F)c1)C(=O)N[C@@H](CC(C)C)C(=O)O)[C@@H](C)O) [VL9—8Cys(mSF)] | 87 | –
NH2-Val-Met-Ala-Pro-Arg-Thr-Cys(mSF)-Phe-Leu-OH (H-VMAPRTC(mSF)FL-OH; SMILES CSCC[C@H](NC(=O)[C@@H](N)C(C)C)C(=O)N[C@@H](C)C(=O)N1CCC[C@H]1C(=O)N[C@@H](CCCNC(=N)N)C(=O)N[C@H](C(=O)N[C@@H](CSc1cccc(S(=O)(=O)F)c1)C(=O)N[C@@H](Cc1ccccc1)C(=O)N[C@@H](CC(C)C)C(=O)O)[C@@H](C)O) [VL9—7Cys(mSF)] | 22 | –
NH2-Val-Met-Ala-Cys(mSF)-Arg-Thr-Leu-Phe-Leu-OH (H-VMAC(mSF)RTLFL-OH; SMILES CSCC[C@H](NC(=O)[C@@H](N)C(C)C)C(=O)N[C@@H](C)C(=O)N[C@@H](CSc1cccc(S(=O)(=O)F)c1)C(=O)N[C@@H](CCCNC(=N)N)C(=O)N[C@H](C(=O)N[C@@H](CC(C)C)C(=O)N[C@@H](Cc1ccccc1)C(=O)N[C@@H](CC(C)C)C(=O)O)[C@@H](C)O) [VL9—4Cys(mSF)] | 36 | –
NH2-Val-Met-Ala-Pro-Arg-Cys(mSF)-Leu-Phe-Leu-OH (H-VMAPRC(mSF)LFL-OH; SMILES CSCC[C@H](NC(=O)[C@@H](N)C(C)C)C(=O)N[C@@H](C)C(=O)N1CCC[C@H]1C(=O)N[C@@H](CCCNC(=N)N)C(=O)N[C@@H](CSc1cccc(S(=O)(=O)F)c1)C(=O)N[C@@H](CC(C)C)C(=O)N[C@@H](Cc1ccccc1)C(=O)N[C@@H](CC(C)C)C(=O)O) [VL9—6Cys(mSF)] | – | no or only trace amounts of cross-linking
NH2-Val-Met-Ala-Pro-Cys(mSF)-Thr-Leu-Phe-Leu-OH (H-VMAPC(mSF)TLFL-OH; SMILES CSCC[C@H](NC(=O)[C@@H](N)C(C)C)C(=O)N[C@@H](C)C(=O)N1CCC[C@H]1C(=O)N[C@@H](CSc1cccc(S(=O)(=O)F)c1)C(=O)N[C@H](C(=O)N[C@@H](CC(C)C)C(=O)N[C@@H](Cc1ccccc1)C(=O)N[C@@H](CC(C)C)C(=O)O)[C@@H](C)O) [VL9—5Cys(mSF)] | – | no or only trace amounts of cross-linking
NH2-Val-Met-Ala-Pro-Arg-Thr-Leu-Phe-Cys(mSF)-OH (H-VMAPRTLFC(mSF)-OH; SMILES CSCC[C@H](NC(=O)[C@@H](N)C(C)C)C(=O)N[C@@H](C)C(=O)N1CCC[C@H]1C(=O)N[C@@H](CCCNC(=N)N)C(=O)N[C@H](C(=O)N[C@@H](CC(C)C)C(=O)N[C@@H](Cc1ccccc1)C(=O)N[C@@H](CSc1cccc(S(=O)(=O)F)c1)C(=O)O)[C@@H](C)O) [VL9—9Cys(mSF)] | – | no or only trace amounts of cross-linking

Molecular target: T2, HLA-E
Assay: Binding to HLA-E by Fluorescence Polarization (FP)
Settings: Table 18
Description: This example describes the analysis of binding of modified VL9 based peptides to HLA-E by Fluorescence Polarization (FP).
Briefly, proteins and VL9 or Qdm derived peptides were produced as described in EXAMPLE 2 and EXAMPLE 3 and binding to HLA-E was measured with Fluorescence Polarization.

Substance | FP result
Ala-Leu-Cys-Trp-Arg-Val-Pro-Cys-Thr (ALCWRVPCT-NH2; cysteine pairing not given here) [Peptide P20] | Binding
Ala-Leu-Cys-Trp-Arg-Val-Pro-Cys-Thr-Gly-Gly-Lys(FITC) (H-ALCWRVPCTGGK(FITC)-NH2; cysteine pairing not given here) [P20(FITC)] | Binding
ALCAPRLCL (cysteine pairing not given here) [Peptide P21] | Binding
Ala-Met-Cys-Gly-Pro-Arg-Cys-Leu-Trp-Gly-Gly-Lys(FITC) (AMCGPRCLWGGK(FITC); cysteine pairing not given here) [P1(FITC)] | Binding
Ala-Leu-Cys-Trp-His-Val-Pro-Cys-Gln-Gly-Gly-Lys(FITC) (ALCWHVPCQGGK(FITC); cysteine pairing not given here) [P23(FITC)] | Binding
Ala-Leu-Cys-Arg-Trp-Arg-Cys-Leu-Tyr-Gly-Gly-Lys(FITC) (ALCRWRCLYGGK(FITC); cysteine pairing not given here) [P28(FITC)] | Binding
AMCGALCLF (cysteine pairing not given here) [Peptide P32] | Binding
Val-Met-Ala-Pro-Lys(FITC)-Thr-Leu-Phe-Leu (VMAPK(FITC)TLFL) [VL9—5Lys(FITC)] | Exchange
Ala-Leu-Cys-Ala-Pro-Arg-Leu-Cys-Leu-Gly-Gly-Lys(FITC) (ALCAPRLCLGGK(FITC); cysteine pairing not given here) [P21(FITC)] | Binding
Ala-Met-Cys-Gly-Ala-Leu-Cys-Leu-Phe-Gly-Gly-Lys(FITC) (AMCGALCLFGGK(FITC); cysteine pairing not given here) [P32(FITC)] | Binding
